In US20050032689A1, “Methods for treatment or diagnosis of disease or disorders associated with an APB domain” (New York University, priority 1994, published 2005):

Test system: EGF receptor mutants (Y5F, CD196)
Assay: Binding of GST-Shc 1-209 to EGF receptor autophosphorylation mutants from NIH 3T3 lysates
Conditions: all tyrosine-phosphorylated residues mutated to phenylalanine or carboxyl terminus deleted
Method: FIG. 3. Association of GST-Shc 1-209 with mutant forms of the EGF receptor. NIH 3T3 cells overexpressing various EGF receptor mutants were stimulated with EGF (200 ng/ml) for 3 min and then lysed. Wild type EGF receptor (W.T.) contains all five known EGF receptor autophosphorylation sites, Y2F has Tyr-992 and Tyr-1068 mutated to phenylalanine, Y5F has all five known EGF receptor autophosphorylation sites mutated to phenylalanine, and CD196 has a carboxyterminal deletion of 196 amino acids deleting all known autophosphorylation sites (Li, N., et al. (1994) Oncogene (In Press). Beads containing GST-Shc 1-209 fusion protein (3 μg) were added to the various lysates containing equal amounts of the receptor (left panels) or the lysates were immunoprecipitated with the anti-EGF receptor (EGFR) antibody (mAb108) (right panels). All samples were incubated at 4° C. for 90 min. The bound proteins were then washed, subjected to SDS-PAGE and transferred to nitrocellulose. […]
Binding Studies—GST fusion proteins were expressed using standard techniques (Ausubel, F. M., et al. Current Protocols in Molecular Biology, (1992) Wiley Interscience, New York). Protein concentration was determined by SDS-PAGE (polyacrylamide gel electrophoresis) using bovine serum albumin as a standard. […]

B1: Shc 1-209: Shc amino terminus, first 209 amino acids of murine p52Shc, generated as a GST fusion protein (protein, UniProt P98083 1-209, looked up, fragment)
chain: MDLLPPKPKYNPLRNESLSSLEEGASGSTPPEELPSPSASSLGPILPPLPGDDSPTTLCSFFPRMSNLKLANPAGGRLGPKGEPGKAAEDGEGSAGAALRDSGLLPLLQDMNKLSGGGGRRTRVEGGQLGGEEWTRHGSFVNKPTRGWLHPNDKVMGPGVSYLVRYMGCVEVLQSMRALDFNTRTQVTREAISLVCEAVPGAKGATRRR
modifications: GST fusion
notes: Shc amino terminus, first 209 amino acids of murine p52Shc, generated as a GST fusion protein
  binding to EGF receptor mutants lacking autophosphorylation sites: completely eliminated Shc 1-209 binding
